Assay results: patent US20140065670A1

How the values were obtained:
[1] = target: CEA (carcinoembryonic antigen) (UniProt P06731); assay: competitive ELISA on CEA, competitor anti-CEA monoclonal antibody; bsctDb as culture supernatant
lysozyme (antigen) = lysozyme (antigen) (UniProt P00698); assay: competitive ELISA on lysozyme, competitor anti-lysozyme Fab antibody fragment; bsctDb as culture supernatant

% Inhibition in CEA Competition ELISA [1]: 100% | % Inhibition in D1.3 Competition ELISA (lysozyme (antigen)): 100%
Substance: D1.3-A5B7 bispecific single chain tetravalent diabody (bispecific antibody)
